B1: HN1L (protein, UniProt Q9H910 1-190, looked up)
Jupiter microtubule …: MFQVPDSEGGRAGSRAMKPPGGESSNLFGSPEEATPSSRPNRMASNIFGPTEEPQNIPKRTNPPGGKGSGIFDESTPVQTRQHLNPPGGKTSDIFGSPVTATSRLAHPNKPKDHVFLCEGEEPKSDLKAARSIPAGAEPGEKGSARKAGPAKEQEPMPTVDSHEPRLGPRPRSHNKVLNPPGGKSSISFY
B2: SAP30BP (protein, UniProt Q9UHR5 1-308, looked up)
SAP30-binding protein: MAGKKNVLSSLAVYAEDSEPESDGEAGIEAVGSAAEEKGGLVSDAYGEDDFSRLGGDEDGYEEEEDENSRQSEDDDSETEKPEADDPKDNTEAEKRDPQELVASFSERVRNMSPDEIKIPPEPPGRCSNHLQDKIQKLYERKIKEGMDMNYIIQRKKEFRNPSIYEKLIQFCAIDELGTNYPKDMFDPHGWSEDSYYEALAKAQKIEMDKLEKAKKERTKIEFVTGTKKGTTTNATSTTTTTASTAVADAQKRKSKWDSAIPVTTIAQPTILTTTATLPAVVTVTTSASGSKTTVISAVGTIVKKAKQ

Tested on: BirA*-FLAG-GATAD1 variants in Flp-In-293 cells
Experiment: BioID proximity labelling of full-length GATAD1 variants (SILAC)
Type: cell-based, human
Settings: GATAD1 WT vs S102P, significant proteins only; for Log2_Ratio.H.L.normalized.WT_S102P_forward: forward experiment (label swap performed, sign inverted against the H/L ratio); for Log2_Ratio.H.L.normalized.WT_S102P_forward / Log2_Ratio.H.L.normalized.WT_S102P_reverse: log2 of normalized H/L ratio; for Ratio.H.L.normalized.WT_S102P_forward: forward experiment; for Log2_Ratio.H.L.normalized.WT_S102P_reverse / Ratio.H.L.normalized.WT_S102P_reverse: reverse experiment
Outline: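 Tetracycline-inducible Flp-In-293 T-REx lines expressing N-terminal BirA*-FLAG GATAD1 variants (WT, S102P, S102D, S102A) were SILAC-labelled, induced with 1 μg/mL tetracycline for 24 h and given 50 μM biotin overnight. Streptavidin-enriched proteins were trypsin-digested on-bead and analysed by LC-MS/MS. Label-swapped log2 SILAC ratios beyond ±1 defined differential proteins (n = 2).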

Row | Molecule | Log2_Ratio.H.L.normalized.WT_S102P_forward | Ratio.H.L.normalized.WT_S102P_forward | Log2_Ratio.H.L.normalized.WT_S102P_reverse | Ratio.H.L.normalized.WT_S102P_reverse
1 | B1 | 1.324 | 0.3994 | 1.259 | 2.3935
2 | B2 | 1.673 | 0.3135 | 1.201 | 2.2985
